B1: SR-F1(20-421), recombinant soluble SR-F1 ectodomain (domain or fragment, human)
chain: SELDPKGQHVCVASSPSAELQCCAGWRQKDQECTIPICEGPDACQKDEVCVKPGLCRCKPGFFGAHCSSRCPGQYWGPDCRESCPCHPHGQCEPATGACQCQADRWGARCEFPCACGPHGRCDPATGVCHCEPGWWSSTCRRPCQCNTAAARCEQATGACVCKPGWWGRRCSFRCNCHGSPCEQDSGRCACRPGWWGPECQQQCECVRGRCSAASGECTCPPGFRGARCELPCPAGSHGVQCAHSCGRCKHNEPCSPDTGSCESCEPGWNGTQCQQPCLPGTFGESCEQQCPHCRHGEACEPDTGHCQRCDPGWLGPRCEDPCPTGTFGEDCGSTCPTCVQGSCDTVTGDCVCSAGYWGPSCNASCPAGFHGNNCSVPCECPEGLCHPVSGSCQPGSGSRDTLIK
modifications: N-linked glycans at Asn 289, 382 and 393
notes: scavenger receptor class F member 1 (SR-F1, SREC-I, SCARF1), human, extracellular domain with EGF-like repeats 1-10; Mass 49.1 kDa by MALDI-TOF (polypeptide 44.0 kDa plus N-glycans); also called SR-F1 extracellular domain; not shown: His8, C-terminal, kept
B2: recombinant human calreticulin (CRT) (natural protein, UniProt P27797 18-417, looked up)
chain: EPAVYFKEQFLDGDGWTSRWIESKHKSDFGKFVLSSGKFYGDEEKDKGLQTSQDARFYALSASFEPFSNKGQTLVVQFTVKHEQNIDCGGGYVKLFPNSLDQTDMHGDSEYNIMFGPDICGPGTKKVHVIFNYKGKNVLINKDIRCKDDEFTHLYTLIVRPDNTYEVKIDNSQVESGSLEDDWDFLPPKKIKDPDASKPEDWDERAKIDDPTDSKPEDWDKPEHIPDPDAKKPEDWDEEMDGEWEPPVIQNPEYKGEWKPRQIDNPDYKGTWIHPEIDNPEYSPDPSIYAYDNFGVLGLDLWQVKSGTIFDNFLITNDEAYAEEFGNETWGVTKAAEKQMKDKQDEEQRLKEEEEDKKRKEEEEAEDKEDDEDKDEDEEDEEDKEEDEEEDVPGQAKDEL
notes: calreticulin, human, recombinant; MW = 49,431 g/mol used for quantification; In the endocytosis assay the protein was labelled with Alexa Fluor 568 succinimidyl ester; also called rCRT; AF568-rCRT

Common to all, as to conditions: both partners purified
Assay [1] deals with T1, complement protein C1q (human, UniProt P02745 23-245; P02746 28-253; P02747 29-245).
T1 construct: complement C1q A-chain, human; C1q is 18 polypeptide chains assembled into 6 triple helices of A-chain, B-chain and C-chain (460 kDa); complement C1q B-chain, human; complement C1q C-chain, human; also called whole C1q; serum C1q; source: purified from human serum; copies: 6 + 6 + 6
The assay is described as follows: SPR; SR-F1(20-421), SR-F1(20-353) or SR-F1(20-221) injected at five increasing concentrations (multiple cycle kinetics) over covalently immobilized C1q (about 16,000 RU, CM5, amine coupling), BSA reference surface, TBS-Ca-P pH 7.4 (2 mM CaCl2), 20 μl/min, 25°C; global fit, 1:1 Langmuir model; apparent KD. A general note: Surface plasmon resonance follows binding to a sensor surface in real time, without labels.

Assay [2] has as its target B1. The assay is described as follows: SPR; reverse configuration: soluble SR-F1(20-421) over immobilized CRT (3,320 RU); apparent KD; data not shown.
In assay [3] the target is B1. As to the kind of experiment: SPR; CRT injected at five increasing concentrations (single cycle kinetics) over covalently immobilized SR-F1(20-421) (1,845 RU) in TBS-Ca-P at 30 μl/min, 25°C; global fit, two-state reaction model; apparent KD.
Assay [4] addresses T1, complement protein C1q. The assay is described as follows: SPR; N-glycosylation site mutants of SR-F1(20-421) with C1q (Figures S5A-C), n = 2; which partner was immobilised is not told in the text shown; apparent affinity.
Assay [5] concerns the target B2. The assay is described as follows: SPR; SR-F1(20-353) and SR-F1(20-221) fragments with CRT (Figure S7); which partner was immobilised is not told in the text shown.

T1 sequence (P02745 23-245, chain 1 of 3): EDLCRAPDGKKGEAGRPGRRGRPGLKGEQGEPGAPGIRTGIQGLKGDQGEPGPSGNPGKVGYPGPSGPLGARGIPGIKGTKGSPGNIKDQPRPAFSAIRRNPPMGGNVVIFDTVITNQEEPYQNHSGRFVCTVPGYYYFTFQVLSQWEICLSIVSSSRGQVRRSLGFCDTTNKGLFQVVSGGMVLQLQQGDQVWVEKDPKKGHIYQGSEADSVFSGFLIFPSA
T1 sequence (P02746 28-253, chain 2 of 3): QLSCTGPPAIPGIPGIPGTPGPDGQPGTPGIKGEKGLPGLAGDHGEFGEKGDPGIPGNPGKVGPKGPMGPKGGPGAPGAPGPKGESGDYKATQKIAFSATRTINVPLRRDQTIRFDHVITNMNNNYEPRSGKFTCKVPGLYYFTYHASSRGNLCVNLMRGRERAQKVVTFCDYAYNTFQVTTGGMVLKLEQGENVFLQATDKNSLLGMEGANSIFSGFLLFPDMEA
T1 sequence (P02747 29-245, chain 3 of 3): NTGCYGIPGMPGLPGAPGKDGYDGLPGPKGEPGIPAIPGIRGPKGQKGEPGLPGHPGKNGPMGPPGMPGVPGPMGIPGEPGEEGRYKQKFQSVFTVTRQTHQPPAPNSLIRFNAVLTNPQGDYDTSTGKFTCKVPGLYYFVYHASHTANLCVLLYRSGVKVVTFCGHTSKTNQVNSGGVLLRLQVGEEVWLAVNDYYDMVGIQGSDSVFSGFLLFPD

What is called koff is the first-order rate constant of dissociation. By kon is commonly meant the rate constant with which the complex forms. For the molecule B1, in assay [1], the Kd was 186 nM; the off-rate (koff) turned out to be 0.00126 s⁻¹; the kon was 6840 M⁻¹ s⁻¹; the “t1/2 (half-life of the complex, ln2/kd)” value worked out at 9.17 min.
For B2, the Kd in assay [2] stood at 770 nM; in assay [3] it was 345 ± 8 nM.

B3: SR-F1(20-421) N382Q (domain or fragment, human)
chain: SELDPKGQHVCVASSPSAELQCCAGWRQKDQECTIPICEGPDACQKDEVCVKPGLCRCKPGFFGAHCSSRCPGQYWGPDCRESCPCHPHGQCEPATGACQCQADRWGARCEFPCACGPHGRCDPATGVCHCEPGWWSSTCRRPCQCNTAAARCEQATGACVCKPGWWGRRCSFRCNCHGSPCEQDSGRCACRPGWWGPECQQQCECVRGRCSAASGECTCPPGFRGARCELPCPAGSHGVQCAHSCGRCKHNEPCSPDTGSCESCEPGWNGTQCQQPCLPGTFGESCEQQCPHCRHGEACEPDTGHCQRCDPGWLGPRCEDPCPTGTFGEDCGSTCPTCVQGSCDTVTGDCVCSAGYWGPSCQASCPAGFHGNNCSVPCECPEGLCHPVSGSCQPGSGSRDTLIK
modifications: N-linked glycans on the two remaining sites (Asn 289, Asn 393)
notes: SR-F1 (SCARF1), human, ectodomain as m1 with Asn 382 replaced by Gln; also called SR-F1 N382Q; N382Q mutant
On to B3, for which, in assay [4], the Kd was 604 nM.

B4: SR-F1(20-421) N393Q (domain or fragment, human)
chain: SELDPKGQHVCVASSPSAELQCCAGWRQKDQECTIPICEGPDACQKDEVCVKPGLCRCKPGFFGAHCSSRCPGQYWGPDCRESCPCHPHGQCEPATGACQCQADRWGARCEFPCACGPHGRCDPATGVCHCEPGWWSSTCRRPCQCNTAAARCEQATGACVCKPGWWGRRCSFRCNCHGSPCEQDSGRCACRPGWWGPECQQQCECVRGRCSAASGECTCPPGFRGARCELPCPAGSHGVQCAHSCGRCKHNEPCSPDTGSCESCEPGWNGTQCQQPCLPGTFGESCEQQCPHCRHGEACEPDTGHCQRCDPGWLGPRCEDPCPTGTFGEDCGSTCPTCVQGSCDTVTGDCVCSAGYWGPSCNASCPAGFHGNQCSVPCECPEGLCHPVSGSCQPGSGSRDTLIK
modifications: N-linked glycans on the two remaining sites (Asn 289, Asn 382)
notes: SR-F1 (SCARF1), human, ectodomain as m1 with Asn 393 replaced by Gln; also called SR-F1 N393Q; N393Q mutant
B4: in assay [4], the Kd was found to be 589 ± 20 nM.

B5: SR-F1(20-353) (domain or fragment, human)
chain: SELDPKGQHVCVASSPSAELQCCAGWRQKDQECTIPICEGPDACQKDEVCVKPGLCRCKPGFFGAHCSSRCPGQYWGPDCRESCPCHPHGQCEPATGACQCQADRWGARCEFPCACGPHGRCDPATGVCHCEPGWWSSTCRRPCQCNTAAARCEQATGACVCKPGWWGRRCSFRCNCHGSPCEQDSGRCACRPGWWGPECQQQCECVRGRCSAASGECTCPPGFRGARCELPCPAGSHGVQCAHSCGRCKHNEPCSPDTGSCESCEPGWNGTQCQQPCLPGTFGESCEQQCPHCRHGEACEPDTGHCQRCDPGWLGPRCEDPCPTGTFGEDCGSLIK
modifications: N-linked glycan at Asn 289
notes: SR-F1 (SCARF1), human, EGF-like repeats 1-8; kept here by the cloning as described; The Leu-Ile-Lys and 8 His tail is printed for the parent plasmid only; not shown: His8, C-terminal, kept
In the case of B5, the binding result in assay [5] was “binds”. In addition, in assay [1], the Kd came to 32.4 nM; the off-rate (koff) is 0.00209 s⁻¹; the kon amounted to 70000 M⁻¹ s⁻¹; the “t1/2 (half-life of the complex, ln2/kd)” value is 5.52 min.

B6: SR-F1(20-221) (domain or fragment, human)
chain: SELDPKGQHVCVASSPSAELQCCAGWRQKDQECTIPICEGPDACQKDEVCVKPGLCRCKPGFFGAHCSSRCPGQYWGPDCRESCPCHPHGQCEPATGACQCQADRWGARCEFPCACGPHGRCDPATGVCHCEPGWWSSTCRRPCQCNTAAARCEQATGACVCKPGWWGRRCSFRCNCHGSPCEQDSGRCACRPGWWGPECQQLIK
notes: SR-F1 (SCARF1), human, EGF-like repeats 1-5, lacks EGF-like modules 6 to 10 and the three N-glycosylation sites; construct encodes the 221 first residues, named 20-221 as secreted protein; kept here by the cloning as described; The Leu-Ile-Lys and 8 His tail is printed for the parent plasmid only; also called SR-F1(1-221); SR-F(20-221); not shown: His8, C-terminal, kept
As to B6, the binding result in assay [5] is “binds”. In assay [1], the Kd worked out at 17.7 nM; the koff is 0.00303 s⁻¹; the association rate constant (kon) was found to be 185000 M⁻¹ s⁻¹; the “t1/2 (half-life of the complex, ln2/kd)” value came to 3.82 min.

The values above are taken from paper PMC7137648, “Molecular and Cellular Interactions of Scavenger Receptor SR-F1 With Complement C1q Provide Insights Into Its Role in the Clearance of Apoptotic Cells” (Frontiers in Immunology, 2020).
